Reference: PMC11399303, “Recombinant expression and characterization of the endochitinase Chit36-TA from Trichoderma asperellum in Komagataella phaffii for chitin degradation of black soldier fly exuviae” (Bioprocess and Biosystems Engineering, 2024)

Substrate: CC(=O)N[C@H]1[C@H](Oc2ccc3c(C)cc(=O)oc3c2)O[C@H](CO)[C@@H](O[C@@H]2O[C@H](CO)[C@@H](O[C@@H]3O[C@H](CO)[C@@H](O)[C@H](O)[C@H]3NC(C)=O)[C@H](O)[C@H]2NC(C)=O)[C@@H]1O
Assay: fluorometric 4-methylumbelliferone release, nonlinear regression
Type: biochemical, Trichoderma asperellum
Conditions: 50 mM sodium acetate, pH 4.5, 40 °C, 5-70 µM substrate
From the text: fluorometric 4-methylumbelliferone release, nonlinear regression on Chit36-TA

B1: Chit36-TA (Trichoderma asperellum CBS 433.97) (protein)
chain: QNATCALKGKPAGKVLMGYWENWDGAANGVHPGFGWTPIENPIIKQNGYNVINAAFPVILSDGTALWENDMAPDTQVATPAEMCEAKAAGATILLSIGGATAGIDLSSSAVADKFIATIVPILKQYNFDGIDIDIETGLTNSGNINTLSTSQTNLIRIIDGVLAQMPSNFGLTMAPETAYVTGGSITYGSIWGAYLPIIQKYVQNGRLWWLNMQYYNGDMYGCSGDSYAAGTVQGFIAQTDCLNAGLTIQGTTIKVPYDMQVPGLPAQSGAGGGYMNPSLVGQAWDHYNGALKGLMTWSINWDGAGNWTFGDNLLTRIG
notes: mature protein without native signal peptide, C-terminal His6 (kept), codon-optimized synthetic gene, secreted from Komagataella phaffii BG10, Ni-NTA purified, N-glycosylated (43 kDa)
- Km: 289 µM
- Vmax: 3 µmol/min/mg
